Laboratory results taken from patent publication US20150140009A1.

What was measured:
[1] = molecular target: TNFR2/p75 on BM-derived EPCs of TNFR1/p55 knockout mice (mouse) (UniProt P25119); assay: cell-based or functional assay
[2] = molecular target: TNF-α in conditioned medium of 1 Gy γ-irradiated mouse BM-derived EPCs (IR-CM) (mouse) (UniProt P06804); assay: cell-based or functional assay
Chain of UniProt P06804 (P06804 80-235 limits assumed): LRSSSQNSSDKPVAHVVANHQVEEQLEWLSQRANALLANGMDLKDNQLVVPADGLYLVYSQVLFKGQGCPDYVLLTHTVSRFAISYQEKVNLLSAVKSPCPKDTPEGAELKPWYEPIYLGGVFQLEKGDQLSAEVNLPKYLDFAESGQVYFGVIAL

Chain of UniProt P25119 (P25119 23-474): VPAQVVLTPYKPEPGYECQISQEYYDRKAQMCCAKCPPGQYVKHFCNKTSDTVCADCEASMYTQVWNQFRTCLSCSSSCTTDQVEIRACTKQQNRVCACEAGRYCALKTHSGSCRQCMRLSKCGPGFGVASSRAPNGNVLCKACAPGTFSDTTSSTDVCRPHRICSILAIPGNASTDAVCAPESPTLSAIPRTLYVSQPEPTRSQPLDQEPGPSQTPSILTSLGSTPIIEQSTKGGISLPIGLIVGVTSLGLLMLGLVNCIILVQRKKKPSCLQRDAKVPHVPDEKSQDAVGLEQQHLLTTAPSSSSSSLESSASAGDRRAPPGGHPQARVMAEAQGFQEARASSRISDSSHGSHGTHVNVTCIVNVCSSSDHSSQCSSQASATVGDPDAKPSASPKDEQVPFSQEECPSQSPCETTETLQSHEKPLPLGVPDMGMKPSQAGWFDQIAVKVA

Row | mean p-H2AX foci/cell count, naïve p55KO EPCs, 24 h with TNF (100 pg/ml, 1, 40 ng/ml), all cells counted; control 0.98 [1] | formation of p-H2AX foci in EPCs treated with γ-IR conditioned media after neutralizing TNF [2] | mean p-H2AX foci/cell, naïve WT EPCs, 24 h treatment with 3-day IR-CM treated with TNF-α neutralizing antibody [2] | mean p-H2AX foci/cell, naïve WT EPCs, 24 h treatment with 5-day IR-CM treated with TNF-α neutralizing antibody [2] | mean p-H2AX foci/cell, naïve WT EPCs, 24 h treatment with 1 h IR-CM treated with TNF-α neutralizing antibody [2] | mean p-H2AX foci/cell, naïve WT EPCs, 24 h treatment with 5 h IR-CM treated with TNF-α neutralizing antibody [2] | mean p-H2AX foci/cell, naïve WT EPCs, 24 h treatment with 24 h IR-CM treated with TNF-α neutralizing antibody [2] | mean p-H2AX foci/cell, naïve p55KO EPCs, 24 h treatment with 3-day IR-CM treated with TNF-α neutralizing antibody [2] | mean p-H2AX foci/cell, naïve p55KO EPCs, 24 h treatment with 5-day IR-CM treated with TNF-α neutralizing antibody [2] | mean p-H2AX foci/cell, naïve p55KO EPCs, 24 h treatment with 1 h IR-CM treated with TNF-α neutralizing antibody [2] | mean p-H2AX foci/cell, naïve p55KO EPCs, 24 h treatment with 5 h IR-CM treated with TNF-α neutralizing antibody [2] | mean p-H2AX foci/cell, naïve p55KO EPCs, 24 h treatment with 24 h IR-CM treated with TNF-α neutralizing antibody [2] | Substance
1 | 2.8 to 3.9 foci/cell |  |  |  |  |  |  |  |  |  |  |  | mouse recombinant TNF-α (Cat. 34-8321-82; eBiosciences) (from UniProt P06804 80-235) (ligand)
2 |  | 2 fold | 3.2 foci/cell | 3.5 foci/cell | 2.4 foci/cell | 4.3 foci/cell | 5 foci/cell | 4.9 foci/cell | 3.5 foci/cell | 3.7 foci/cell | 3.6 foci/cell | 4.2 foci/cell | TNF-α neutralizing antibody (Cat. 506309, BioLegend)
